In patent publication US20130266566A1 (AbbVie / Abbott, published 2013):

T1: rat PAI-1 (rat, UniProt P20961 24-402)
T1 sequence: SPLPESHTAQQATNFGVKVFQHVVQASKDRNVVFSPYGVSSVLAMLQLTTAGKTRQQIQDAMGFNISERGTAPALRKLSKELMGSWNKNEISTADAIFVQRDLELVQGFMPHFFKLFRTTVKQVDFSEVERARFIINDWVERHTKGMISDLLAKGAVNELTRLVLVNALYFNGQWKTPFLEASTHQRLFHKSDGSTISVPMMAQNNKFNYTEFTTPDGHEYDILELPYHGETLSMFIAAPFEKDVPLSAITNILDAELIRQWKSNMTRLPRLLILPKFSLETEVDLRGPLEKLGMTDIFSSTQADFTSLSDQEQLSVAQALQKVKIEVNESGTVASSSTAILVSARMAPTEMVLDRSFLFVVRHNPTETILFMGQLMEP

T2: mouse PAI-1 (mouse, UniProt P22777 24-401)
T2 sequence: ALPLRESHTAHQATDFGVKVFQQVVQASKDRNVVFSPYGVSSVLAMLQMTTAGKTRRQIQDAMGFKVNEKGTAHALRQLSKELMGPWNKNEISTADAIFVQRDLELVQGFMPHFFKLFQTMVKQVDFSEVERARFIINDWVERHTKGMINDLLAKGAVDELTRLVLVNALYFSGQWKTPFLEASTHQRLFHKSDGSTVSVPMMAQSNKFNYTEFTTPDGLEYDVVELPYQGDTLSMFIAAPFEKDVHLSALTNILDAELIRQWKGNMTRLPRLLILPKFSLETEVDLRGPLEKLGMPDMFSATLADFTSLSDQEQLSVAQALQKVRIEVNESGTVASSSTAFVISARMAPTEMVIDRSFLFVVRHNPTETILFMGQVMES


What was measured:
Experiment in all cases: cell-based or functional assay
[1] = molecular target: T1, rat PAI-1
[2] = molecular target: active human PAI-1, recombinant, wild-type, non-glycosylated (E. coli) (human, UniProt P05121 24-402)
[3] = molecular target: cynomolgus PAI-1 (cynomolgus, UniProt P05121 24-402 (human entry), limits assumed)
[4] = molecular target: T2, mouse PAI-1

Chromogenic (IC50 in nM) rat [1] [nM] | Chromogenic IC50 ratio rat/human [1] [fold] | Chromogenic (IC50 in nM) human [2] [nM] | Chromogenic (IC50 in nM) cyno [3] [nM] | Chromogenic IC50 ratio cyno/human [3] [fold] | Chromogenic (IC50 in nM) mouse [4] [nM] | Chromogenic IC50 ratio mouse/human [4] [fold] | Binder
376 | 229 | 1.6 | 0.5 | 0.3 | 376 | 229 | Antibody 23 scFv (scFv) QVQLQQSGAEVKKPGSSVKVSCKASGGTFSSYAISWVRQAPGQGLEWMGGIIPTFGTANYAQKFQSRVTITADESTSTAYMELSGLRSEDTAVYYCAREKRQWLEGHFDYWGRGTPVTVSSDIQMTQSPSFLSASIGDRVTITCRASEGIYHSLAWYQQKPGKAPKLLIYRASSLASGAPSRFSGSGSGTDFTLTISSLQPDDFATYYCQQYSNYPLTFGGGTKLEIK
322 | 24.6 | 13.1 | 4.6 | 0.4 | 172 | 13.1 | Antibody 25 scFv (scFv) QVQLQQSGAEVKKPGSSVKVSCKASGGTFSSYAISWVRQAPGQGLEWMGGIIPTFGTANYAQKFQGRVTITADESTSTAYMELSGLRSEDTAVYYCARERRQWLEGHFDYWGQGTPVTVSSDIQMTQSPSFLSASIGDRVTITCRASESIYHELAWYQQKPGKAPKLLIYKASSLASGAPSRFSGSGSGTAFTLTISSLQPDDFATYYCQQYSNYPLTFGGGTKLEIK
245 | 61.4 | 4 | 1.2 | 0.3 | 211 | 52.9 | Antibody 26 scFv (scFv) QVQLQQSGAEVKKPGTSVKVSCKASGGTFSSYAISWVRQAPGQGLEWMGGIIPIFGTANYAQKFQGRVTITADESTSTAYMELSSLRSEDTAVYYCAREKRQWLEGHFDYWGRGTPVTVSSDIQMTQSPSFLSASIGDRVTITCRASEGIYHTLAWYQQKPGKAPKLLIYRASSLASGAPSRFSGSGSGTDFTLTISSLQPDDFATYYCQQYSNYPLTFGGGTKLEIK
127 | 39.3 | 3.2 | 1.1 | 0.3 | 140 | 43.3 | Antibody 24 scFv (scFv) QVQLQQSGAEVKKPGSSVKVSCKASGGTFSSYAISWVRQAPGQGLEWMGGIIPTFVTANYAQKFQGRVSITADESTSTAYMELSGLRSEDTAVYYCAREKRQWLEGHFDYWGRGTPVTVSSDIQMTQSPSFLSASIGDRVTITCRASEGIYHALAWYQQKPGKAPKLLIYRASSLASGAPSRFSGSGSGTDFTLTISSLQPDDFATYYCQQYSNYPLTFGGGTKLEIK

Second part, the binder before the results:

Binder | Chromogenic (IC50 in nM) rat [1] [nM] | Chromogenic IC50 ratio rat/human [1] [fold] | Chromogenic (IC50 in nM) human [2] [nM] | Chromogenic (IC50 in nM) cyno [3] [nM] | Chromogenic IC50 ratio cyno/human [3] [fold] | Chromogenic (IC50 in nM) mouse [4] [nM] | Chromogenic IC50 ratio mouse/human [4] [fold]
Antibody 03 scFv (scFv) QVQLQQSGAEVKKPGSSVKVSCKASGGTFSSYAISWVRQAPGQGLEWMGGIIPTFGTANYAQKFQGRVTITADESTSTAYMELSGLRSEDTAVYYCAREKRQWLEGHFDYWGRGTPVTVSSDIQMTQSPSFLSASIGDRVTITCRASEGIYRSLAWYQQKPGKAPKLLIYKASSLASGAPSRFSGSGSGTDFTLTISGLQPDDFATYYCQQYSNYPLTFGGGTKLEIK | 297 | 165 | 1.8 | 0.1 | 0.1 | 54.9 | 30.5
Antibody 07 scFv (scFv) QVQLQQSGAEVKKPGSSVKVSCKASGGTFSSYAISWVRQAPGQGLEWVGGIIPTFGTANYAQKFQGRVTITADESTSTAYMELSGLRSEDTAVYYCAREKRQWLEGHFDYWGRGTPVTVSSDIQMAQSPSFLSASIGDRVTITCRASEGIYHELAWYQQKPGKAPKLLIYRASSLASGAPSRFSGSGSGTDFTLTISSLQPDDFATYYCQQYSNYPLTFGGGTKLEIK | 91 | 0.5 | 187 | 117 | 0.6 | 143 | 0.8
Antibody 05 scFv (scFv) QVQLQQSGAEVKKPGSSVKVSCKASGGTFSSYAISWVRQAPGQGLEWMGGIIPTFSTANYAQKFRGRVTITADESTSTAYMELSGLRSEDTAVYYCAREKRQWLEGHFDYWGRGTPVTVSSDIQMTQSPSFLSASIGDRVTITCRASEGIYHQLAWYQQKPGKAPKLLIYRASSLASGAPSRFSGSGSGTDFTLTISSLQPDDFATYYCQQYSNYPLTFGGGTKLEIK | 860 | 172 | 5 | 0.5 | 0.1 | 718 | 144
Antibody 10 scFv (scFv) QVQLQQSGAEVKKPGSSVKVSCKASGGTFSSYAISWVRQAPGQGLEWMGGIIPTFGTANYAQKFQGRVTITADESTSTAYMELSSLRSEDTAVYYCAREKRQWLEGHFDYWGRGTPVTVSSDIQMTQSPSFLSASIGDRVAITCRASEGIYHSLAWYQQKPGKAPKLLIYRASSLASGAPSRFSGSGSGTDFTLTISSLQPDDFATYYCQQYSNYPLTFGGGTRLEIK | 296 | 132 | 2.2 | 0.5 | 0.2 | 334 | 149
Antibody 06 scFv (scFv) QVQLQQSGAEVKKPGSSVKVSCKASGGTFSSYAISWVRQAPGQGLEWMGGIIPTFGTANYAQKFQGRVTITADESTSTAYMELSGLRSEDTAVYYCAREKRQWLEGHFDYWGRGTPVTVSSDIQMTQSPSFLSASIGDRVTITCRASEGIYHELAWYQQKPGKAPKLLIYRASSLASGAPSRFSGSGSGTDFTLTISSLQPDDFATYYCQQYSNYPLTFGRGTKLEIK | 37.1 | 0.5 | 74.6 | 31.6 | 0.4 | 48.2 | 0.6
Antibody 04 scFv (scFv) QVRLQQSGAEVKKPGSSVKVSCKASGGTFSSYAISWVRQAPGQGLEWMGGIIPTFGTANYAQKFRGRVTITANESTSTAYMELSGLRSEDTAVYYCAREKRQWLEGRFDYWGRGTLVTVSSDIQMTQSPSFLSASIGDRITITCRASEGIYHSLAWYQQKPGKAPKLLIHRATSLASGTPSRFGGSGSGTDFALTISSLQPDDFATYYCQQYSNYPLTFGGGTKLEIK | 340 | 51.4 | 6.6 | 2.1 | 0.3 | 264 | 39.9
Antibody 02 scFv (scFv) QVQLVQSGAEVKKPGSSVKVSCKASGGTFSSYAISWVRQAPGQGLEWMGGIIPTFGTANYAQKFQGRVTITADESTSTAYMELSSLRSEDTAVYYCAREKRQWLEGHFDYWGRGTLVTVSSDIQMTQSPSTLSASVGDRVTITCRASEGIYHSLAWYQQKPGKAPKLLIYKASSLASGVPSRFSGSGSGTEFTLTISSLQPDDFATYYCQQYSDYPLTFGGGTKVEIK | 530 | 891 | 0.6 | 1.1 | 1.8 | 553 | 929
